Earlier results as cited in publication PMC6886688.

System: Tyr134

For “Cellular retinoic acid binding protein 2 (CRABP2) (Homo sapiens (inferred; not stated in the article))”, the pKa is listed as about 7.6.
